The series in a line: soluble on expression in E. coli; label from the status in PepcDB or PDB records.
As to “MGSDKIHHHHHHMELRVGGAKPSDNSPAASKGFSDPLDSHGVPGRSKQYLIHSAFTGTIGGVAMAYVDWAIKGPKIASCSCDYGCPCEFNGKPTEGLCEGLECMLIEEGWFGDLRLDGLKVAAVYRWPGPVHEGGGVVRGFFDANADQAQIDALFTILGGKEQEPTTVFNIYGSTIAQELEPIFAPIEFHSDIEKRTGGFRIDGHLELELEPIRNPVTGAPHRARIVLPEGFEFRQAEIASGTFNANGEIAMGRQKRYGALWRAAYGPYGIIEE”, the “soluble on expression in E. coli” value is recorded as “not soluble”.
With “MPVIKDAVCSLCGSLCDDITVTVEDNKITKIENACILGHSKFVGMFEHDRIETPMVRKDGELVPVSYEEAIEAAAKILVNSRRTLSYGWCSTSCEAVSGAIQLAEETGSIIDSTANVCHGPTALAAQEKGSPSASLGEIKNRADVIVFWGCNPVHAHPRHMSRYSSFSKGFFTEKGRKGRKMVVIDVRKTDTAKIADKYVEIEQGSDLLLVTALRSIVNGHEDVVPETVAGVPKAEVLELAETLKNAKFTCIFFGMGVTQSRSKYKNGDAVSSLISDLNQHTKAVMIGMRGHYNVTGFGQVATWETGFPMAIDFSRGYPYYNPGETGANDLLVREEPDAAIIAAADAGAHFPQKAVRHLARIPVIQIDPYANPTTEIADVVIPAAVVGIEAEGTAYRMDAISLRMKKLIDTEFKTDEEIVKDLTAKVREMKRGV”, the “soluble on expression in E. coli” value was “not soluble”.
Take “MGDSVLSAIQQTITQRKSANPSESYVAQLLHKGEDKILKKVIEEAGEVLMASKDKNPSHLVYEVADLWFHTMILLTHHDLKAEDVLDELARRQGLSGLVEKAARTES”: the “soluble on expression in E. coli” value is “not soluble”.
Then “MAPRSILITGANRGIGLGLVKQFLKNEGIQLVIATCRNPSKADELNSIADSRLQIFPLEIDCDDSIKKLYENVDTLVGTDGLTVLINNAAICSVYEIEGQISRTYMRQQIETNSVSTAILTQNFIPLLKKASAKNGGEEYSTDRAAIVNISSGAASIGYIDDKQPGIYIAYRMSKSALNSFSKSCSVELAKYHILVTAMCPGWVKTDMGGENGWEEVDDATEKIMKSILKLGAAQHGAFINSSLEVYPN”, with “not soluble”; and “MAHHHHHHMEAAAERCFQEGDLKGAACLYANLMVLYPQYTKMARMCRVLSNPLDVPLPYRYADVVEALLDPCVTYQTLFGTDAPPSVVRKAFQGWTLLVHPDKNPYPKAADAFNRLVAFKAAAMGTVDEGPPNAGGVNSKSSCRGNVRNRQRCTKRHGSANRANQSNQHSQLGDEIDMSLYELKKVQVTLKSLKRKNVDDSELPPLSAFLRPGGGARSRGGVDHSNNTKGSVPTPETQEGGSASLDESIPTSPRSCTADTACEPGLSQTIEAQLRSSEGATDAPYVLSELTPQQNEVVRGGKGLEGENTEEPLGLPTAGGHMQQYATNRNVGEVDNGSRVSLEADDSVQGPAKGIQNPDALPRRRGKHVDRLEGTCTGEFTQQSNQNSTCDTSSSEGLHSTTFNEDVPLVELAKLGIRELFDGIQKKINRDPIRLNCDLSFATYTRDKQKEVNEASVQSNDET”, with “not soluble”.
As to “SLATRRPMSIAEPDTAVSTASFMTAWEFPQGDDSAETPTTPKALQFQEPEYIHIPWDHNTDIAPDLMDLCHVVDDRTKAGKRVLIHCQQGASRSASLIIAYGLFQRPELTVNDAYYAAQAKSQWISPNMKLMYSLQDFQKEVSTKRTAQPSNREG”, the “soluble on expression in E. coli” value is on record as “not soluble”.
The value for “MGSDKIHHHHHHMDSRDMQAIGLCRFSYPAIGGFQVEHETIEERISYLYAEDRLEERFQLLETVALPCLREQTDQNFELIVVIGDTLPKRHGDRLHDLTSDMPQVRIVVEPPRPQRELMKELLNSARTDPSKPCLQFRYDDDDAVSVDFIERFRNALNDCRGLVTTNRTVAVDFNRGYVAELGADGIAATETVRTLYVASLGMYVKGGCRLTIMNFAHEKIGRFMPVISISDVPMWVRSHNGFNDSRQKKVKPVPVVPLTEDQKAEFAARFAIREDHVKRVFSGG” was “not soluble”; that for “MGSDKIHHHHHHMMEMVNNSFRHGILFQEGKMEEARFIERPNRFTVRCALGSEILDAYLPNPGRLWELLLPDSVLYVVRRDVGQDRKLRGVVVAVEREGRPVMLHTLACNDIVADLLRQKRLPGFEGMNILQREIARGRSRFDFLLEQNGAPRLLEVKSCTLFGRCIAMFPDAVTLRGRRHLLELAELSRQGTPAHVLFLVHWPHADFFLPDYHTDFDFASTFLAVRDAVRFSALAVDWQPDMTPGAEIRELYIPWELLEREVQDSGCYLLVLHLPRNENVIPGGSTLLSLRKGYYVTVVSIRSGLTRHLQKSSRRRPGSENSRKSTVPDNLKAAADKILAIPIRTTEPLEAELNDALSRIADWSVPGFEARGDAGLAPVFGMAGPPLQRRAFVELLLDFRINRLEKFLARGAGSSAGPPVGNPSLEKIQ” was “not soluble”; that for “MAMSFIKPIYQDINSILIGQKVKRPKSGTLSGHAAGEPFEKLVYKFLKENLSDLTFKQYEYLNDLFMKNPAIIGHEARYKLFNSPTLLFLLSRGKAATENWSIENLFEEKQNDTADILLVKDQFYELLDVKTRNISKSAQAPAIISAYKLAQTCAKMIDNKEFDLFDINYLEVDWELNGEDLVCVSTSFAELFKSEPSELYINWAAAMQIQFHVRDLDQGFNGTREEWAKSYLKHFVTQAEQRAISMIDKFVKPFKKYILRSRELVDPNSVQARLQDVDGTIDTRSKLAAAQLYTRASQPELAPEDPEDLEHHHHHH” was “soluble”.
Then “MLEKWEPIMAETRKLKYDEAALRTLTREDLDALEIGAGILGTGGGGNPYLGKLLALEAMKAGYEMKILATDAIEPDALCMSIGGIGAPVVGVERIREGREGLRCLRAMEELIRTPVDAIVCEEIGGSNSMNPLVTAALGGLPILDCDGMGRAFPEMQMTTFSIYGHSSTPSVMCDLHGNAVIFSHAVSEVWHERMARACVVAQGGGAMLATAPMQAHYVHQYGIPKTYTKAIAIGEAVIRARKQQEDPIAAVCALEGGRRIFNGKITDLKRHLRGGFAVGDLTLSGFDDCAGQTAGVAIQNEFLLFSRDGKVEVTVPDLIVLLDVDTGYPITTEVLRYGQRVAVIAIPCHDLLRSARALEVVGPAAFGYPDIPFSPLPLPVSKAALEHHHHHH”, with “soluble”; and “MPKVNLYATFRDLTGKSQLELPGATVGEVLENLVRAYPALKEELFEGEGLAERVSVFLEGRDVRYLQGLSTPLSPGATLDLFPPVAGGGFERTFGAFPPWLLERYLEEWGGTREGEGVYRLPGAVVRFREVEPLKVGSLSIPQLRVEVEGEEAERWFERIAFAASRGGG”, with “soluble”; and “MTIETIKRIIEEENVRFIRLQFTDINGTLKNLEITPDVFLESWEDGIMFDGSSIEGFVRIEESDMYLKPVLDTFAVLPWTVDGAKSARVICDVYTPDGKPFEGDPRYRLRRMMEKAEQLGYTPYAGPEMEFFILPINEKGEPVPEFLDHGGYFDLLPLSKVEEIRRDIAIALEKMGITVEATHHEVAPSQHEVDFRYDTFLRTADNAQTVKLVIKTMAIFHGYHATFMPKPFYGVNGSGMHVHMSLFRGDKNAFYDPDDPLGLSKELRYFVGGILKHAKALAAVTNPTINSYKRLVPGYEAPVYISWSVGNRSALIRIPKARGKATRLEYRSPDPSCNIYLAFAAILAAGLDGIINKIEPPAPVEENIYHMTSERREELNIESLPGSLKEAVEELKKDDVIIDALGEHIFEKFVEAAEKDWKEFSTYVTNWELQRYLYL”, with “soluble”.
Then “MGSDKIHHHHHHMGSLEQRRLEQDKRPDDVRDEYDRDEARLIHSAAFRRLQSKTQVLGLGESDFYRTRLTHSMEVAQIGRGIVQYLSKNKKFAEYHEHLPNTSLITAICLAHDIGHPPFGHGGEVALNYCMREHGGFEGNGQTLRILGKLDKYTGEHGLNPTRRMLLGILKYPVAYSELVNEKAYEQVPDKNAPYWLFEARMQKPPKCYHDCDQEIVDFIFDGFAREELAKFTQTEQPIDKDEPEKPLHKKSLYKSLDCTIMNLADNISYSLHDFEDALSLGMITQRHWREHFEGKEALFNDLAKQLVRNDLNFDLITVNLFHKESHCRKEAIGSLVNLMITNAIIEKNQSGCENPLLSLEVKLAPQIEKLRQHIFDLVCEQVIFDENVQQLEFKGQKLVIELFQTLAKDPNRFLPKPTRERLKKAGEGLEGEHKKSAQLRVICDFVSGMTDDYATKFYEKLFTPSKGSIFDRL”, with “not soluble”; and ATCYCRTGRCATRESLSGVCEISGRLYRLCCR, with “soluble”.
As for “MPKSLSLQDVQLRFSSKFPDKTVLKFTKNYEPVTIQCPLHGSVVYGNLQAAMKSSTGCPECTRNPEKPSPNAVAIRLEDTETGEIYEFASTLAASKFIGCSNSTLAVRLSGRTPFDRLIRYRYRLVK”, the “soluble on expression in E. coli” value is “not soluble”.
In the case of “TPTVDHVLLNIALNLSSNRSHEQQYQNLIDGVAQVFPCDASCLFIFDEDGFLTPVAVKGLSSSVLGRRYFPKAHPRLDAIIHSREPVRFDADCSLPDPFDGTLLTEDQCIDVHDCMGFSLYVEGQLVGALTMDALTVGAFDDIDPVAIETFAALTAATLRNIAQLKALKAQNQKQKSVTQTLIQQARSQHG”, the “soluble on expression in E. coli” value was “not soluble”.
In the case of “MSLKRVSVIICMFLYFVLTDKAHAQRCLPGTKGLRITAGMTDGFHTADKRNELGYHFGMGMDRYVNGCHKWVFSGEYLQKYYPYKDIRVPVSQFTAEGGYYYNFLSDANKVFLCYAGGSVLAGYETVNWGTGMLFDGSRLCVGDAFVYGGAVSLEIETYLANQVVLLFHARERCLWGNDSGHFHFQFGVGLKIILNEGHHHHHH”, the “soluble on expression in E. coli” value was “not soluble”.
Regarding “MGSDKIHHHHHHMMEKVTQMIAMLIKAWKKESVSQIDTPPVPATPEPKQQSPNNSACLTERVNTFLQTHYDFRYNRLTEETEFRPLSGAKTEFRPIGKRELNTLCMEAHAEGISCWDKDVSRYIYSTQIGEYHPFRLYMDELPPWDGIDRLTPLARRVSALPLWVKGFHTWMLGLAAQWEGKTGVHANSLAPILISAEQGRMKSTFCKSLMPKVLQRYYMDNLKLTSEGQAERLLSEMGLINLDEFDKYAESKMPLLKNLMQMSSLHVCKAYQRNFRDLPRIASFIGTSNRSDLMSDPTGSRRFFCVEVEKPINCEGIEHEQIFAQLKAELADGCPYWFDKETEREIQQNNAPFYRTCPAEEVFLSCFRTSASAEEKYLRLSAADIYKELKKRNAAALRGFNPNHFAQVLIKMGVERKHTEYGNVYLVVRR”, the “soluble on expression in E. coli” value is “not soluble”.
“MGSSHHHHHHDYDIPTTENLYFQGGGGGGMRAAVVYKTDGHVKRIEEALKRLEVEVELFNQPSEELENFDFIVSVGGDGTILRILQKLKRCPPIFGINTGRVGLLTHASPENFEVELKKAVEKFEVERFPRVSCSAMPDVLALNEIAVLSRKPAKMIDVALRVDGVEVDRIRCDGFIVATQIGSTGYAFSAGGPVVEPYLECFILIPIAPFRFGWKPYVVSMERKIEVIAEKAIVVADGQKSVDFDGEITIEKSEFPAVFFKNEKRFRNLFGKVRSIG”: the “soluble on expression in E. coli” value is “soluble”.

These data come from the DeepSol protein solubility set.
